Laboratory results as given in US20100028342A1 (published 2010).
Values joined by “and” are separate entries in the source; they are usually repeats but may differ in a detail not shown here. Identical values can stand only once.

Legend:
[1] = target: T1, native human IGF-IR on human tumor cells (human, UniProt P08069 31-1367); assay: competition: blocking of IGF-I binding to SK-ES1 cells (Ewing sarcoma)
T1 construct: whole, on cells; also called native IGF-IR; endogenous cellular IGF-IR

[2] = target: T1, native human IGF-IR on human tumor cells; assay: competition: blocking of IGF-I binding to T47D cells (breast)
[3] = target: T1, native human IGF-IR on human tumor cells; assay: competition: blocking of IGF-I binding to BXPC3 cells (pancreatic)
[4] = target: T1, native human IGF-IR on human tumor cells; assay: competition: blocking of IGF-I binding to OV90 cells (ovarian)
[5] = target: T2, recombinant mouse IGF-IR (mIGF-IR) (mouse, UniProt Q60751 31-933, limits assumed); assay: ELISA on immobilized recombinant mouse IGF-IR
T2 construct: also called mIGF-ER
T2 sequence (Q60751 31-933 limits assumed): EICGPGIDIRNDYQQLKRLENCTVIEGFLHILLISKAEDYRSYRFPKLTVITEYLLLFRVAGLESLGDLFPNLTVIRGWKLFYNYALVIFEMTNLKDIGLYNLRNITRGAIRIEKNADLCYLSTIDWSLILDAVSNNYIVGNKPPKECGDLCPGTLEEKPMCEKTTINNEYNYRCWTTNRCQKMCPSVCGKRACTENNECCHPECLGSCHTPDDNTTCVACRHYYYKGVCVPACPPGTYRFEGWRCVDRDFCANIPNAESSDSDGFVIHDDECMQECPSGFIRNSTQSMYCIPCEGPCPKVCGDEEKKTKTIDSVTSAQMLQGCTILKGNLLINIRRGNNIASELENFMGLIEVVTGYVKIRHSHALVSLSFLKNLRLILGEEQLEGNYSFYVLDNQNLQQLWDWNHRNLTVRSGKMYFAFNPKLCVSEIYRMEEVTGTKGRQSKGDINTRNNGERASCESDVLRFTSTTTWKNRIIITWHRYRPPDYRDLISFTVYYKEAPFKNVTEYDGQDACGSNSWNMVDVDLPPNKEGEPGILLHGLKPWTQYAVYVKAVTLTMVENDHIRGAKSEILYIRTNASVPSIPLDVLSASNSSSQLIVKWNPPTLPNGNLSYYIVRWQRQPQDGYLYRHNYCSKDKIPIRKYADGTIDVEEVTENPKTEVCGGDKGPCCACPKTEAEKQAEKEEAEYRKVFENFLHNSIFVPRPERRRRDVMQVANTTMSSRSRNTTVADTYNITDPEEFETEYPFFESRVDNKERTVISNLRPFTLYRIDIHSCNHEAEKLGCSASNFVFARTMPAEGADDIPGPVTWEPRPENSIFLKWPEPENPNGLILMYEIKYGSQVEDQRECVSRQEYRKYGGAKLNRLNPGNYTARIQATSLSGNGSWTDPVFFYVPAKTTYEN

[6] = target: T1, native human IGF-IR on human tumor cells; assay: competition: blocking of IGF-I binding to HPAC cells (pancreatic)
[7] = target: T1, native human IGF-IR on human tumor cells; assay: competition: blocking of IGF-I binding to 8226 cells (myeloma)
[8] = target: T1, native human IGF-IR on human tumor cells; assay: competition: blocking of IGF-I binding to HT-29 cells (colorectal)
[9] = target: T1, native human IGF-IR on human tumor cells; assay: competition: blocking of IGF-I binding to MCF7 cells (breast)
Method: (§1) The anti-IGF-IR antibodies were tested for blocking of radiolabeled ligand binding to native IGF-IR on human tumor cells (FIG. 1C). Assay conditions were performed according to Arteaga and Osborne (Cancer Res. 49:6237-41 (1989)), with minor modifications. MCF7 human breast cancer cells were seeded into 24 well dishes, and cultured overnight. Sub-confluent monolayers were washed 2-3 times in binding buffer (Iscove's Medium/0.1% BSA) and antibody added in binding buffer. […] The wells were then washed three times with ice-cold PBS/0.1% BSA. Monolayers were then lysed with 200 μl 0.5N NaOH and counted in a gamma counter.

[10] = target: T1, native human IGF-IR on human tumor cells; assay: competition: blocking of 125I-IGF-I binding to IGF-IR on MCF7 cells
Method: as §1

B1: antibody A12 (fully human IgG1 anti-IGF-IR antibody) (antibody, V domains shown)
VH: EVQLVQSGAEVKKPGSSVKVSCKASGGTFSSYAISWVRQAPGQGLEWMGGIIPIFGTANYAQKFQGRVTITADKSTSTAYMELSSLRSEDTAVYYCARAPLRFLEWSTQDHYYYYYMDVWGKGTTVTVSS
VL: SSELTQDPAVSVALGQTVRITCQGDSLRSYYATWYQQKPGQAPILVIYGENKRPSGIPDRFSGSSSGNTASLTITGAQAEDEADYYCKSRDGSGQHLVFGGGTKLTVLG
notes: also called A12 IgG
- IC50 [1]: 2 nM
- IC50 [2]: 6 nM
- IC50 [3]: 20 nM
- IC50 [4]: 6 nM
- EC50 [5]: 0.3 to 0.5 nM
- IC50 [6]: 10 nM
- IC50 [7]: 20 nM
- IC50 [8]: 10 nM
- IC50 [9]: 3 nM
- IC50 [10]: 0.45 µg/mL

B2: antibody 2F8 (fully human IgG1 anti-IGF-IR antibody) (antibody, V domains shown)
VH: B1 VH
VL: SSELTQDPAVSVALGQTVRITCQGDSLRSYYASWYQQKPGQAPVLVIYGKNNRPSGIPDRFSGSSSGNTASLTITGAQAEDEADYYCNSRDNSDNRLIFGGGTKLTVLS
notes: also called 2F8 IgG
- IC50 [10]: 30 nM and 4.5 µg/mL
